{
  "source": "paper PMC3347556",
  "target": "Lys65 (UniProt position 65, ICSVSKQFTCA)",
  "test": "kinetics",
  "conditions": "25 °C, not stated (0.1 M Tris-HCl buffer), Free enzyme (Vmax/KM profile) with D-Ala-pNA as substrate",
  "data": [
    {"substance": "D-aminopeptidase (DAP) (Ochrobactrum anthropi)", "values": [
      {"measurement": "pKa", "value": 7.4}
    ]}
  ]
}
